According to patent US20180207259A1:

Target: 92UG037.8-gp140-Fd (HIV-1 primary isolate 92UG037.8 (clade A))
Experiment: surface plasmon resonance

Substance: monoclonal antibody (mAb) 2G12
- Kd: 17.9 nM
